From patent EP1951759B1 (ELI LILLY AND COMPANY, dated 2010)

Target: T1, soluble EGFR (sEGFR): amino acids 1-619 of mature human EGFR with (Gly)4Ser linker and (His)6 tag (human, UniProt P00533 25-643, biotinylated with Sulfo-NHS-LC-Biotin (B-sEGFR) in the filter lift and the capture ELISA)
T1 construct: range 25-643; also called B-sEGFR; biotinylated sEGFR
Assay: KinExA; calculated as Kd x kon

koff: 1.46e-06 s⁻¹
B1: full-length monoclonal antibody VH4.15 (antibody, V domains shown)
VH: QVQLQESGPGLVKPSETLSLTCTVSGFSLTNYGVHWIRQPPGKGLEWIGNIWSGGNTDYNTPFTSRVTISVDTSKNQFSLKLSSVTAADTAVYYCARALDYYDYDYAYWGQGTMVTVSS
VL: EIVLTQSPDFQSVTPKEKVTITCRASYSIGTNIHWYQQKPDQSPKLLIKYASESISGVPSRFSGSGSGTDFTLTINSLEAEDAATYYCQQNNEWPTSFGGGTKVEIK
notes: Full-length antibody with human Fc
